What is called IC50 is the concentration that gives 50% inhibition. Read a high IC50 as weaker potency in that assay.

The values below come from patent publication US5625031.

Assay [1] deals with p34^cdc2 cell cycle regulatory kinase (Homo sapiens (Human)) (UniProt P06493). Put plainly: IC50 column of Table 1 (ELISA based competition, competitor plate-bound p107 30mer). For orientation: ELISA stands for enzyme-linked immunosorbent assay.
Assay [2] has the same target.
Assay [3] has the same target. Put plainly: Western blot densitometry of p34^cdc2 bound to p107 30mer-sepharose against immunoprecipitated p34^cdc2. A general note: Immunoblotting shows a protein as a band on a membrane.

In assay [1], p107 NC5mer pentapeptide (CAFYI) showed an IC50 of 13 µM.

For the substance “p107 30 amino acid peptide (residues 692-721 of p107, encompassing alpha-helix II)”, the histone H1 kinase specific activity of p34^cdc2 bound to p107 30mer-sepharose in assay [2] amounted to 1.4%. The same substance returned an amount of p34^cdc2 associated, relative to that within the immune complexes in assay [3] of 50 times.
